# Reference: patent US20250163149A1, “ANTI-RAGE ANTIBODY” (Swansea University, priority 2022, published 2025)
# B1: hHA9: chimeric humanised format of anti-RAGE antibody clone HA9 (antibody, V domains shown)
# VH: EVKLVETGGGLVQPGRPMKLSCVASGFTLSDHWMNWVRQSPEKGLEWVAQIRNRPYKFEKYYSDSVKGRFTISRDDSKNSVYLQMNNLRAEDMGIYYCSSYRYGLAYWGQGTLVTVST
# VL: DNLLTQSPAILSVSPGERVSFSCRASQTIDTRIHWYQQRKNGSPRLLIRYISESLSGIPSRFSGSGSGTEFTLTINSVESEDIADYYCQQTESWPITFGSGTKLEIK
# Columns and labels:
# RAGE [1] = target: T1, RAGE (Homo sapiens, UniProt Q15109); experiment: Binding target blocking assay by immunofluorescence on HEC-1A cells; assay type: cell-based; parameters: endogenous in cells; host or cells: HEC-1A (ECACC); conditions: then antibody at 4 μg/ml
# Description: To proof that HA9 shares similar binding epitope as other α-RAGE antibodies, an immunofluorescence approach was used. For this purpose, 1.5×10^4 HEC1A cells/well (obtained from the European Collection of Authenticated Cell Cultures, ECACC, Public Health England, UK) were seeded in 8-well chamber slides (Ibidi) in 300 μl of stripped medium and cultured for 24 h in a humidified, 5% CO2 in air atmosphere incubator at 37° C. After culture, cells were fixed with 4% paraformaldehyde (Sigma) for 20 minutes, permeabilized with 0.1% Triton X-100 (Sigma) for 10 minutes at 4° C. and blocked with 3% BSA in PBS for 1 h. Cells were then pre-incubated with a primary antibody against RAGE at a concentration in excess (20 μg/ml in 3% BSA in PBS for 1 h) to block the specific epitope they bind, before cells were incubated with the α-RAGE antibody of interest at 4 μg/ml in 3% BSA-PBS overnight at 4° C. This was followed by 1 h incubation with Alexa-fluorophore-conjugated secondary antibodies. Cells were washed with PBS extensively between all steps, counterstained before imaging with Hoechst (Life Technologies™) and imaged using a LSM710 confocal fluorescence microscopy system (Zeiss, UK). The mean intensity of fluorescence was obtained using imageJ by measuring the integrated density per imaged field, normalised by the number of cells in the respective field and obtaining the mean from >10 fields obtained per condition. A decrease in fluorescence in the pre-blocked condition compared with the not-pre-blocked condition means both antibodies share similar epitope of binding on the same protein.
# [2] = target: T2, RAGE recombinant protein (Human rRAGE) (Homo sapiens, UniProt Q15109); experiment: Surface plasmon resonance binding kinetics (Biacore T200), recombinant protein analyte; conditions: analyte RAGE recombinant protein, or RAGE synthetic peptide, not separated
# T2 construct: Human rRAGE=Full-length RAGE recombinant protein from Merck; purchased Merck
# Description: For on-rate and off-rate screening, Biacore™ T200 system (Cytiva, Uppsala, Sweden) was used to perform SPR analysis with 1×HBS-EP+ buffer (0.01M Hepes, 0.15M NaCl, 0.003M ethylenediaminetetraacetic acid, and 0.05% Surfactant P20, pH 7.4) (BR100669) used as sample and running buffer. The analysis temperature at the sensor chip surface and within the compartment was set to 25° C. Firstly, pH scouting with 10 mM sodium acetate buffer 4.0 (BR-1003-49), 10 mM sodium acetate buffer 4.5 (BR-1003-50), 10 mM sodium acetate buffer 5.0 (BR-1003-51) and 10 mM sodium acetate buffer 5.5 (BR-1003-52) was performed to identify the optimal pH required for ligand (α-RAGE antibodies) immobilization. This was followed by diluting the ligand with the appropriate Acetate buffer to at least 10 μg/mL. The ligand immobilization on the surface Series S Sensor Chip CM5 (29-1496-03, Cytiva) was performed using the Amine Coupling Kit (BR100050, Cytiva) containing 1-Etyhyl-3-(3-dimethylaminopropyl)-carbodiimide hydrochloride (EDC), N-Hydroxysuccinimide (NHS) and 1.0M ethanolamine-HcL PH 8.5 in accordance with the manufacturer's instructions. For each experimental run, the ligand was immobilized in flow cells 2 or 4 while flow cells 1 or 3 were left unmodified. Flow cells 2 and 4 were used as active flow cells while flow cells 1 and 3 were used as reference flow cells. Ligand immobilization levels were typically within the range 500-900 RU for the kinetic experiments and injected with a flow rate of 10 μL/min and contact time of 300 s. Analytes (RAGE recombinant protein and synthetic peptides) were injected for 120 s with a flow rate of 30 μL/min and dissociation time of 600 s run in order of increasing concentration over the reference and active flow cells using a multi-cycle kinetic approach with five-seven concentration range. Following each binding cycle, the surface was regenerated with a 30 s injection of 10 mM Glycine-HcL, pH 2.5 regeneration solution (BR-1003-56), removing the bound antibody with a contact time of 30 s, flow rate of 30 μL/min and a stabilization period of Os. […]
# RAGE [3] = target: T1, RAGE; experiment: Western blot on protein extracts from human healthy tissues; conditions: brain, breast, kidney, liver, lung, ovary, pancreas, spleen and uterus
# RAGE protein on SKOV3 = target: T3, RAGE protein on SKOV3 (Homo sapiens, UniProt Q15109); experiment: Immunofluorescent staining of RAGE basal expression on SKOV3 cells; assay type: cell-based; conditions: primary antibody 4 μg/ml
# T3 construct: RAGE protein expressed on the extracellular membrane of cancer cells in its native conformation; endogenous in cells; host or cells: SKOV3 (ECACC)
# Description: To screen binding of α-RAGE antibodies by immunofluorescence, 1.5×10^4 SKOV3 cells/well (obtained from the European Collection of Authenticated Cell Cultures, ECACC, Public Health England, UK) were seeded in 8-well chamber slides (Ibidi) in 300 μl of stripped medium and cultured for 48 h in a humidified, 5% CO2 in air atmosphere incubator at 37° C. After culture, cells were fixed with 4% paraformaldehyde (Sigma) for 20 minutes, permeabilized with 0.1% Triton X-100 (Sigma) for 10 minutes at 4° C. and blocked with 3% BSA in PBS for 1 h. Primary antibodies diluted at 4 μg/ml in 3% BSA-PBS were incubated overnight at 4° C., followed by 1 h incubation with Alexa-488 secondary antibody. Cells were washed with PBS extensively between all steps, counterstained before imaging with Hoechst (Life Technologies™) and imaged using a LSM710 confocal fluorescence microscopy system (Zeiss, UK).
# T3 sequence (Q15109 23-404): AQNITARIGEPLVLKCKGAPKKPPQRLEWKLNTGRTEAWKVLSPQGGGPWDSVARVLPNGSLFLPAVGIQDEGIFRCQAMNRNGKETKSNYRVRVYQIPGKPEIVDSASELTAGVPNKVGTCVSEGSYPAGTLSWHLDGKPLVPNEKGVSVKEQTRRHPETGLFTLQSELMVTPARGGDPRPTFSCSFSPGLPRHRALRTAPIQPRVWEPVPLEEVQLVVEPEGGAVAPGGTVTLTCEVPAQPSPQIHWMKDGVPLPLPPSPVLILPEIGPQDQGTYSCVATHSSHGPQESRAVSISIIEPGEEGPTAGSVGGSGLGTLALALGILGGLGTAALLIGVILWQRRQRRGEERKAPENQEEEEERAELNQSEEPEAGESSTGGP
# T1 sequence (Q15109 23-404): as above
# T2 sequence (Q15109 23-404): as above
molecule,measurement,setting,value
B1,staining after Abcam antibody pre-blocking,RAGE [1]; Abcam antibody 20 μg/ml pre-incubation,did not result in a decrease
same,staining after N16 pre-blocking,RAGE [1]; N16 20 μg/ml pre-incubation,statistically significant decrease
same,affinity interaction by SPR (summary statement),[2],weaker affinity
same,affinity interaction by SPR (summary statement),[2]; listed as chimeric-HA9,weaker affinity than AB11451 antibody or the commercial antibodies
same,RAGE expression detected in human healthy tissues,RAGE [3],absent or very low expression
same,immunofluorescent signal (basal RAGE staining),RAGE protein on SKOV3; compared with other clones and AB11451,highest detection of RAGE basal expression
same,immunofluorescent signal (basal RAGE staining),"RAGE protein on SKOV3; compared with other clones and AB11451, listed as chimeric HA9",most intense immunofluorescent signal
same,immunofluorescent signal (basal RAGE staining),"RAGE protein on SKOV3; compared with other clones and AB11451, listed as chimeric-HA9",higher intensity
